Tests used:
[1] = biological target: Alexa-488 maleimide-labeled α-syn^ΔCTD (Δ104-140, A18C) (human) (UniProt P37840); test: fluorescence polarisation
[2] = biological target: Alexa-488 maleimide-labeled α-synuclein (G132C) (human) (UniProt P37840); test: fluorescence polarisation

Question: What does the source list for “SARS-CoV-2 nucleocapsid protein with the NTD deleted (NP^ΔNTD) (domain or fragment)”?
Answer: fold rise of Kd on removing the CTD of α-syn [1]: 4 fold; Kd [2]: 3670 nM

Question: What does the source list for “SARS-CoV-2 nucleocapsid protein with the CTD deleted (NP^ΔCTD) (domain or fragment)”?
Answer: fold rise of Kd on removing the CTD of α-syn [1]: 3.5 fold; Kd [2]: 1850 nM
